Experimental data as given in patent publication US20110274702A1.

Assays:
Assay in all cases: ELISA on coated HA
[1] = biological target: B/Ohio/1/05 HA protein (influenza B virus B/Ohio/1/05)
[2] = biological target: H10N4 A/mink/Sweded/3900/84 HA protein (influenza A virus H10N4 A/mink/Sweded/3900/84)
[3] = biological target: H1N1 A/Brisbane/59/07 HA protein (influenza A virus H1N1 A/Brisbane/59/07)
[4] = biological target: H3N2 A/Brisbane/10/07 HA protein (influenza A virus H3N2 A/Brisbane/10/07)
[5] = biological target: H3N2 A/New York/55/04 HA protein (influenza A virus H3N2 A/New York/55/04)
[6] = biological target: H3N2 A/Wyoming/3/03 HA protein (influenza A virus H3N2 A/Wyoming/3/03)
[7] = biological target: H4N6 A/duck/Czechoslovakia/56 HA protein (influenza A virus H4N6 A/duck/Czechoslovakia/56) (UniProt P19696)
[8] = biological target: H5N1 A/Viet Nam/1/05 HA protein (influenza A virus H5N1 A/Viet Nam/1/05)
[9] = biological target: H5N1 A/Viet Nam/1203/04 HA protein (influenza A virus H5N1 A/Viet Nam/1203/04)
[10] = biological target: H6N5 A/shearwater/Australia/1/72 HA protein (influenza A virus H6N5 A/shearwater/Australia/1/72)
[11] = biological target: H7N3 A/Canada/444/04 HA protein (influenza A virus H7N3 A/Canada/444/04)
[12] = biological target: H7N7 A/Netherlands/219/03 HA protein (influenza A virus H7N7 A/Netherlands/219/03)
[13] = biological target: H8N4 A/Alberta/357/84 HA protein (influenza A virus H8N4 A/Alberta/357/84)
[14] = biological target: H9N2 A/Hong Kong/1073/99 HA protein (influenza A virus H9N2 A/Hong Kong/1073/99)

Measured: EC50

ctr (antibody)
> 20 µg/mL: all assays above
